Test results taken from US20250066483A1.

Biological target: bovine PD-1-His (bovine)
Assay: SPR (Biacore X100), bovine PD-1-His immobilised on a CM5 chip, antibody as analyte, single kinetics, 3 repeats

- Kd: 12.2 nM
- koff: 0.000215 s⁻¹
- kon: 18400 M⁻¹ s⁻¹
B1: rat anti-bovine PD-1 monoclonal antibody 5D2 (antibody, V domains shown)
VH: QVQLKETGPGLVQPTQTLSITCTVSGFSLTSYYIQWVRQTPGKGLEWMGFIRSGGSTEYNSEFKSRLSINRDTSKNQVFLKMNSLKTEDTGVYYCARTSSGYEGGFDYWGQGVMVTVSS
VL: DVVLTQTPVSLSVTLGDQASISCRSSQSLEYSDGYTYLEWYLQKPGQSPQLLIYGVSNRFSGVPDRFIGSGSGTDFTLKISRVEPEDLGVYYCFQATHDPDTFGAGTKLELK
